A value given as a limit tells only on which side of the number the result lay.

The record followed here is the Immune Epitope Database (IEDB).

For experiment [1], the target named is HLA-B*15:17. Nature of the experiment: IEDB peptide-MHC binding, purified MHC/direct/fluorescence; filed as Kd, often an IC50 or EC50 that approximates it; ≥ and ≤ were set here for values at or beyond the usual limits of such assays.
The target in experiment [2] is HLA-A*03:01. The description is as above.
The target in a further experiment is HLA-A*11:01. The description is as above.
The target of another experiment is HLA-B*40:01. The experiment is described as above.
A further experiment has as its target HLA-B*57:01. Described as above.
The target in another experiment is HLA-B*38:01. Described as above.
A further experiment addresses HLA-B*58:01. The description is as above.
For experiment [3], the target named is HLA-A*02:01. Described as above.
A further experiment addresses HLA-B*18:01. Described as above.
The target in a further experiment is HLA-B*27:05. The experiment is described as above.
Experiment [4] deals with HLA-A*69:01. The description is as above.
For a further experiment, the target named is HLA-A*31:01. The description is as above.
The next experiment has as its target HLA-B*48:01. Described as above.
The target in experiment [5] is HLA-B*15:01. The description is as above.
The target of another experiment is HLA-B*46:01. The description is as above.
Another experiment deals with HLA-B*51:01. The description is as above.
Experiment [6] deals with HLA-A*01:01. The experiment is described as follows: IEDB peptide-MHC binding, purified MHC/competitive/fluorescence; filed as Kd, often an IC50 or EC50 that approximates it; ≥ and ≤ were set here for values at or beyond the usual limits of such assays. To be noted: source organism: Mycobacterium tuberculosis str. Haarlem.
Experiment [7] has as its target HLA-A*01:01. The experiment is described as follows: IEDB peptide-MHC binding, purified MHC/direct/fluorescence; filed as Kd, often an IC50 or EC50 that approximates it; ≥ and ≤ were set here for values at or beyond the usual limits of such assays.
In another experiment the target is HLA-B*07:02. The experiment is described as above. The settings on record: source organism: Vibrio vulnificus YJ016.
Another experiment concerns the target HLA-B*39:01. The description is as above.
In experiment [8] the target is HLA-A*26:01. Nature of the experiment: IEDB peptide-MHC binding, purified MHC/competitive/fluorescence; filed as Kd, often an IC50 or EC50 that approximates it; ≥ and ≤ were set here for values at or beyond the usual limits of such assays. To be noted: source organism: Vibrio vulnificus YJ016.
The target in a further experiment is HLA-A*30:01. The description is as above. To be noted: source organism: Vibrio vulnificus YJ016.
Experiment [9] addresses HLA-A*02:01. The experiment is described as above. To be noted: source organism: Vibrio vulnificus YJ016.
Experiment [10] deals with HLA-A*69:01. The experiment is described as above. The settings on record: source organism: Vibrio vulnificus YJ016.
The target of experiment [11] is HLA-A*26:01. The experiment is described as follows: IEDB peptide-MHC binding, purified MHC/direct/fluorescence; filed as Kd, often an IC50 or EC50 that approximates it; ≥ and ≤ were set here for values at or beyond the usual limits of such assays. To be noted: source organism: Vibrio parahaemolyticus AQ3810.
Another experiment deals with HLA-B*08:02. The description is as above. The settings on record: source organism: Vibrio parahaemolyticus AQ3810.
Experiment [12] deals with HLA-B*15:17. The experiment is described as follows: IEDB peptide-MHC binding, purified MHC/competitive/fluorescence; filed as Kd, often an IC50 or EC50 that approximates it; ≥ and ≤ were set here for values at or beyond the usual limits of such assays. The settings on record: source organism: Vibrio parahaemolyticus RIMD 2210633.
Experiment [13] concerns the target HLA-A*03:01. The experiment is described as above. The settings on record: source organism: Vibrio parahaemolyticus RIMD 2210633.
Experiment [14] has as its target HLA-B*15:01. The description is as above. To be noted: source organism: Vibrio parahaemolyticus RIMD 2210633.
The target of the next experiment is HLA-A*26:02. Nature of the experiment: IEDB peptide-MHC binding, purified MHC/direct/fluorescence; filed as Kd, often an IC50 or EC50 that approximates it; ≥ and ≤ were set here for values at or beyond the usual limits of such assays. The settings on record: source organism: West Nile virus strain PTRoxo.
The target in a further experiment is HLA-A*32:15. The experiment is described as follows: IEDB peptide-MHC binding, purified MHC/competitive/fluorescence; filed as Kd, often an IC50 or EC50 that approximates it; ≥ and ≤ were set here for values at or beyond the usual limits of such assays. To be noted: source organism: West Nile virus.
The next experiment addresses HLA-B*83:01. The description is as above. To be noted: source organism: West Nile virus.
For another experiment, the target named is HLA-B*15:42. The experiment is described as above. To be noted: source organism: West Nile virus.
Another experiment addresses HLA-B*45:06. Described as above. The settings on record: source organism: West Nile virus.
The target of another experiment is HLA-A*32:07. The description is as above. To be noted: source organism: West Nile virus.
The mark [15] stands for this setting: source organism: Mycobacterium tuberculosis.
Setting [16] is: source organism: Vibrio vulnificus YJ016.
The mark [17] stands for this setting: source organism: Vibrio parahaemolyticus.
[18] abbreviates: source organism: Vibrio parahaemolyticus AQ3810.

Consider GPAGYTAAL, for which the dissociation constant Kd with HLA-B*15:17 [1] (setting [15]), with HLA-A*03:01 [2] (setting [15]), with HLA-A*11:01 (setting [15]), in the experiment with HLA-B*40:01 (setting [15]), in the experiment with HLA-B*57:01 (setting [15]) and with HLA-B*38:01 (source organism: Mycobacterium tuberculosis str. Haarlem) was not below 20 µM throughout. Further, the Kd with HLA-B*58:01 (setting [15]), with HLA-A*02:01 [3] (setting [15]), with HLA-B*18:01 (setting [15]), with HLA-B*27:05 (setting [15]), with HLA-A*69:01 [4] (setting [15]) and with HLA-A*31:01 (setting [15]) was not below 20 µM each time. The Kd with HLA-B*48:01 (setting [15]), with HLA-B*15:01 [5] (setting [15]), with HLA-B*46:01 (setting [15]), with HLA-B*51:01 (setting [15]) and in the experiment with HLA-A*01:01 [6] was not below 20 µM in each case.
On to IVAQGIAAL, for which the dissociation constant (Kd) in the experiment with HLA-B*15:17 [1] (setting [16]) is 0.0475 µM; with HLA-A*03:01 [2] (setting [16]) it was not below 20 µM; with HLA-A*01:01 [7] (setting [16]), not below 20 µM; with HLA-A*11:01 (setting [16]) it was not below 20 µM; in the experiment with HLA-B*40:01 (setting [16]), not below 20 µM; with HLA-B*57:01 (setting [16]) it was not below 20 µM. Moreover, the Kd was not below 20 µM with HLA-B*38:01 (setting [16]); not below 20 µM with HLA-B*58:01 (setting [16]); 0.086 µM with HLA-B*07:02; not below 20 µM with HLA-B*18:01 (setting [16]); not below 20 µM in the experiment with HLA-B*27:05 (setting [16]); 0.22 µM with HLA-B*39:01 (setting [16]). The equilibrium dissociation constant (Kd) in the experiment with HLA-A*31:01 (setting [16]) is not below 20 µM; with HLA-B*48:01 (setting [16]), not below 20 µM; with HLA-B*15:01 [5] (setting [16]), 0.048 µM; with HLA-B*46:01 (setting [16]) it was 9 µM; with HLA-B*51:01 (setting [16]) it was not below 20 µM; with HLA-A*26:01 [8] it was not below 20 µM. Also, the Kd in the experiment with HLA-A*30:01 is not below 20 µM; in the experiment with HLA-A*02:01 [9], 0.0181 µM; with HLA-A*69:01 [10], 0.0077 µM.
Take RSTLANGWY: the equilibrium dissociation constant (Kd) with HLA-A*01:01 [7] (setting [17]) was 0.274 µM; with HLA-A*26:01 [11], 0.59 µM; with HLA-B*08:02 it was not below 20 µM; in the experiment with HLA-A*11:01 (setting [17]), not below 20 µM; in the experiment with HLA-B*40:01 (setting [17]) it was not below 20 µM; with HLA-B*57:01 (setting [17]), 0.268 µM. The Kd in the experiment with HLA-B*38:01 (setting [18]) is not below 20 µM; with HLA-B*58:01 (setting [17]), 0.059 µM; in the experiment with HLA-A*02:01 [3] (setting [17]), not below 20 µM; with HLA-B*18:01 (setting [17]), not below 20 µM; with HLA-B*27:05 (setting [17]), not below 20 µM; with HLA-B*39:01 (setting [18]), not below 20 µM. Besides, the Kd was not below 20 µM with HLA-A*69:01 [4] (setting [17]); not below 20 µM with HLA-A*31:01 (setting [17]); not below 20 µM in the experiment with HLA-B*48:01 (setting [17]); not below 20 µM with HLA-B*46:01 (setting [17]); 0.0012 µM with HLA-B*15:17 [12]; 1.48 µM with HLA-A*03:01 [13]. The sequence also yielded a Kd with HLA-B*15:01 [14] of 0.0942 µM.
On to ETTNWLWAF, for which the Kd is not above 0.001 µM with HLA-A*26:02; 0.0251 µM with HLA-A*32:15; not below 5 µM with HLA-B*83:01; not below 5 µM with HLA-B*15:42; not below 5 µM with HLA-B*45:06; 0.0263 µM with HLA-A*32:07.

The term Kd denotes the equilibrium constant for the complex coming apart. Read a low Kd as a tighter complex.
